“Also recorded” adds a separate entry of the source. Values belong to the molecule of their own block, whether it stands above or below them.
Columns and labels:
[1] = biological target: T1, HGFRECD-c-Myc (extracellular domain of HGFR with c-Myc tag, expressed in HEK293T cells) (UniProt P08581 25-932); experiment: co-IP from transfected HEK293T cells (FIG. 1F)
T1 construct: extracellular domain; also called HGFRECD-c-Myc-tag; not shown: c-Myc tag

[2] = biological target: T1, HGFRECD-c-Myc (extracellular domain of …); experiment: co-IP with anti-c-Myc from transfected HEK293T cells (FIG. 1G)
HGFR signaling = experiment: Western blotting of phosphorylated HGFR, AKT, ERK, FAK in HCT116 cells; format: cell-based, human; settings: HCT116; 10 μg/ml 16 h, then EpEX-His 50 nM 15 min; FIG. 7D
Protocol: FIGS. 2A to 2K. EpEX promotes tumor progression via HGFR signaling. (FIG. 2A) WT or EpCAM knockout (KO) HCT116 and HT29 cells treated with HGF (0.5 nM) for 15 min. The phosphorylation of HGFR, AKT, and ERK was examined by Western blotting. (FIG. 2B) WT or KO HCT116 and HT29 cells were treated with HGF (0.5 nM) with 2% FBS for the indicated times. Cell growth was examined by the WST-1 assay. (FIG. 2C) Starved HCT116 cells were treated with HGFR inhibitor SU11274 (SU, 10 μM) for 1 h then treated with 50 nM of EpEX-His for 15 min. The levels of phosphorylated HGFR, EGFR, AKT, and ERK were examined by Western blotting. HCT116 and HT29 cells were treated with 50 nM EpEX and SU (10 μM). (FIG. 2D) Cell growth was examined by WST-1 assay after treatment for indicated time. (FIG. 2E) HCT116 cells were treated with shLuc or HGFR shRNA then treated with 50 nM of EpEX-His for 15 min. The levels of phosphorylated HGFR, EGFR, ERK, and AKT were examined in HGFR knockdown HCT116 cells by Western blotting. (FIG. 2F) The levels of phosphorylated ADAM17 and presenilin 2 were examined by Western blotting. (FIG. 2G) Active β-catenin nuclear translocation was assay by using Western blotting. (H) HCT116 cells were treated with shLuc or HGFR shRNA then treated with 50 nM of EpEX-His for indicated times. Cell growth was examined by the WST-1 assay. (FIG. 2I) HCT116 cells after shLuc and shHGFR treatment were treated with 50 nM of EpEX-His with 2% FBS for 7 days. Colony formation was examined by crystal violet staining.
FIGS. 6A to 6J. EpAb2-6 inhibits EpCAM and HGFR signaling and promotes active β-catenin and Snail protein degradation via activating GSK3β. (FIG. 6A) HCT116 cells were treated with 10 μg/ml control IgG (normal mouse IgG, NMIgG) or mouse EpAb2-6 (EpAb2-6) for 16 h, followed by treatment with EpEX-His (50 nM) for 15 min. Levels of phosphorylated HGFR, AKT, FAK, GSK3β, ERK, ADAM17, and presenilin 2 were examined by Western blotting. (FIG. 6B) HCT116 cells were treated with 10 μg/ml control IgG or mouse EpAb2-6 for 16 h, followed by treatment without or with HGF (0.5 nM) for 15 min. Levels of phosphorylated HGFR, AKT, and ERK were examined by Western blotting. HCT116 cells were treated with mouse EpAb2-6 (10 μg/ml) and HGF (0.5 nM). (FIG. 6C) Cell migration was examined by the wound healing assay at the indicated times. (FIG. 6D) Cell invasion was assessed by a Transwell assay with matrigel after 24 h. (FIG. 6E) HCT116 cells were treated with NMIgG or EpAb2-6 for 6 h and then immunoprecipitated with anti-EpCAM (IP: EpCAM) or anti-HGFR (IP: HGFR) antibodies, followed by Western blotting. (FIG. 6F) EpEX-His (2 μg/ml) co-treated with 1 μg IgG or EpAb2-6 was added to HGFR-Fc-coated (1 μg/ml) ELISA plates and detected by TMB colorimetric peroxidase assay. (FIG. 6G) EMT associated protein levels were detected by Western blotting in HCT116 cells treated with NMIgG or EpAb2-6 for 24 h. (FIG. 6H) Protein expression was analyzed by Western blotting in HCT116 cells after treatment with EpAb2-6 and 2 μM GSK3β inhibitor (BIO) for 24 h. Quantification of the normalized protein expression in the bottom panel. (FIG. 6I) HCT116 cells were treated with 10 μM MG132 and EpAb2-6 for 6 h before cell collection and subsequent Western blotting. (FIG. 6J) Stability of Snail protein in HCT116 cells treated with NMIgG or EpAb2-6. Cells were treated with cyclohexamide (CHX) 100 μg/ml at the indicated intervals and subjected to Western blotting.
FIGS. 7A to 7G. EpAb2-6 binds EpEX and induces apoptosis by F(ab′)2 and inhibits regulated intramembrane proteolysis (RIP) activation and HGFR signaling. (FIG. 7A) Binding affinity of IgG EpAb2-6 (mouse) and F(ab′)2 to EpEX-His (1 μg/ml) coated overnight was checked using ELISA (OD450). (FIG. 7B) HCT116 cells were treated with 100 μg/ml control IgG, Fc, or F(ab′)2 of EpAb2-6 for 24 h. The apoptotic and necrotic cells were quantified by fluorescein annexin V-FITC/PI double labeling. […]

HCT116 cells = experiment: Apoptosis assay, annexin V-FITC/PI double labeling, HCT116; format: cell-based, human; settings: 10 μg/ml 24 h, FIG. 7C
Protocol: (§1) FIGS. 7A to 7G. EpAb2-6 binds EpEX and induces apoptosis by F(ab′)2 and inhibits regulated intramembrane proteolysis (RIP) activation and HGFR signaling. (FIG. 7A) Binding affinity of IgG EpAb2-6 (mouse) and F(ab′)2 to EpEX-His (1 μg/ml) coated overnight was checked using ELISA (OD450). (FIG. 7B) HCT116 cells were treated with 100 μg/ml control IgG, Fc, or F(ab′)2 of EpAb2-6 for 24 h. The apoptotic and necrotic cells were quantified by fluorescein annexin V-FITC/PI double labeling. (FIG. 7C) HCT116 and HT29 cells were treated with 10 μg/ml control IgG, MT201, humanized EpAb2-6 (hEpAb2-6) or mouse hybridoma EbAb2-6 (mEpAb2-6) for 24 h. The apoptotic and necrotic cells were quantified by fluorescein annexin V-FITC/PI double labeling. (FIG. 7D) HCT116 cells were treated with 10 μg/ml control IgG, MT201, hEpAb2-6 or mEpAb2-6 for 16 h, followed by treatment with EpEX-His (50 nM) for 15 min. Levels of phosphorylated HGFR, AKT, and ERK, and (FIG. 7E) RIP proteins ADAM17 and presenilin 2 were examined by Western blotting. Anti-EpCAM antibody and crizotinib coordinately induces apoptosis in colon cancer cells. (FIG. 7F) HCT116 and HT29 cells were treated with 10 μg/ml NMIgG or EpAb2-6 and 4 μM HGFR inhibitor crizotinib for 24 h. The apoptotic and necrotic cells were quantified by fluorescein annexin V-FITC/PI double labeling. (FIG. 7G) HCT116 and HT29 cells were treated with 10 μg/ml NMIgG or EpAb2-6 and 10 μM HGFR inhibitor crizotinib. Cell invasion was assessed by a Transwell assay with matrigel after 24 h.
(§2) Cells were seeded and treated with 10 μg/ml mAb or inhibitor for 6 h; an unrelated mouse myeloma immunoglobulin used at appropriate dilution served as the IgG2a (Invitrogen #02-6200) isotype control. Apoptotic cells were detected using Annexin V-FITC and PI, and were analyzed using a flow cytometer (BD Immmunocytometry Systems). Early apoptosis was measured with the Annexin V-FITC Apoptosis Detection kit II (BD Pharmingen). Late apoptotic nuclei were detected with propidium iodide (PI) staining.

HT29 cells = experiment: Apoptosis assay, annexin V-FITC/PI double labeling, HT29; format: cell-based, human; settings: 10 μg/ml 24 h, FIG. 7C
Protocol: as §1, §2

ADAM17 and presenilin 2 = experiment: Western blotting of RIP proteins ADAM17 and presenilin 2 in HCT116 cells; format: cell-based, human; settings: 10 μg/ml 16 h, then EpEX-His 50 nM 15 min, FIG. 7E
Protocol: as §1, with “(FIG. 7G) HCT116 and HT29 cells were treated with 10 μg/ml NMIgG or EpAb2-6 and 10 μM HGFR inhibitor crizotinib.” left out
Whole cell extracts were prepared with RIPA buffer (50 mM Tris-HCl pH7.4, 1% NP-40, 0.5% Sodium deoxycholate, 0.1% SDS, 150 mM NaCl, 2 mM EDTA, 50 mM NaF). Protein concentrations of the cell lysates were determined by the Bradford assay. […]
Appropriate horseradish peroxidase-associated secondary antibodies (Millipore) were applied and the membranes were incubated at room temperature (RT) for 1 h. The protein bands were subsequently visualized with chemiluminescence reagents (Millipore) and detected on a BioSpectrum 600 Imaging system (UVP). The protein level was quantified from band intensity using Gel-Pro analyzer 3.1 (Media Cybernetics).

cancer cells = settings: comparison in the description; previous work; cited from earlier work
EpCAM = biological target: T2, EpCAM (Homo sapiens, UniProt P16422); settings: other anti-EpCAM antibodies, comparison in the description; cited from earlier work
T2 sequence (P16422 24-314): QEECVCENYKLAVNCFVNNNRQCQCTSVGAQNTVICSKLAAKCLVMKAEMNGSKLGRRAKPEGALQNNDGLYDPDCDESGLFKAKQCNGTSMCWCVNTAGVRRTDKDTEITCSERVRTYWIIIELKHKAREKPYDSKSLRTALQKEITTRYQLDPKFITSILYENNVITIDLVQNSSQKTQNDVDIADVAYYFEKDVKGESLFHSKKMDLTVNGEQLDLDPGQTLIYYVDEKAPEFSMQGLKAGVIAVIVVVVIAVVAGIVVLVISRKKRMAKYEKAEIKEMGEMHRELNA

T1 sequence (P08581 25-932): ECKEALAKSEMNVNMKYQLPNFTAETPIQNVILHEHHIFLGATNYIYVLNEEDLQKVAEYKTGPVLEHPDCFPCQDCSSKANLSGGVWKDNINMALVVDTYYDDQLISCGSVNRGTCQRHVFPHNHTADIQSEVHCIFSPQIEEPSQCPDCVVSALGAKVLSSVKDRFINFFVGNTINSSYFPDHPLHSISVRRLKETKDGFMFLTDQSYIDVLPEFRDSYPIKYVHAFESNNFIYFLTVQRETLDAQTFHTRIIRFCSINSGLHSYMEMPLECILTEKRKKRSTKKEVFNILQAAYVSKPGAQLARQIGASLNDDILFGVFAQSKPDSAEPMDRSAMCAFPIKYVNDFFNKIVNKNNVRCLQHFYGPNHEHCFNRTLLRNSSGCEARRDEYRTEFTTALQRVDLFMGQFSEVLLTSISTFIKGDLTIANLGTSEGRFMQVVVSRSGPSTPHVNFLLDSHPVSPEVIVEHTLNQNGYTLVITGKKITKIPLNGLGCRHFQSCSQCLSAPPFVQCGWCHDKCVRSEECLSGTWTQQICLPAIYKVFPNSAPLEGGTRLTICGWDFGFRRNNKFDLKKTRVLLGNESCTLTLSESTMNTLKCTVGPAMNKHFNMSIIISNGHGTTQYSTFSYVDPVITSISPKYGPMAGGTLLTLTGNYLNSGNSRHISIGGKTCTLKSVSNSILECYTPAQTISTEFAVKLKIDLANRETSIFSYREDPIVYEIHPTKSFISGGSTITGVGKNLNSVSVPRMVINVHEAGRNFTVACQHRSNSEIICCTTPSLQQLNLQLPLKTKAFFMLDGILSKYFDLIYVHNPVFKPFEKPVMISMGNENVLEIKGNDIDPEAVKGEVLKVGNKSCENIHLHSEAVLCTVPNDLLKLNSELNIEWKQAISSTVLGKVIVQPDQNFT

B2: EpEXΔEGFI-His (ligand)
chain: QEESKLAAKCLVMKAEMNGSKLGRRAKPEGALQNNDGLYDPDCDESGLFKAKQCNGTSMCWCVNTAGVRRTDKDTEITCSERVRTYWIIIELKHKAREKPYDSKSLRTALQKEITTRYQLDPKFITSILYENNVITIDLVQNSSQKTQNDVDIADVAYYFEKDVKGESLFHSKKMDLTVNGEQLDLDPGQTLIYYVDEKAPEFSMQGLK
notes: EpEX lacking aa 27-59; also called EGF like-domain deletion mutant EpEX-His; soluble EpEX mutant protein; not shown: His tag
binding result [2]: binds

B3: hEpAb2-6: humanized EpAb2-6 (antibody, V domains shown)
VH: VKLQESGPELKKPGETVKISCKASGYTFTDYSMHWVKQAPGKGLKWMGWINTETGEPTYADDFKGRFAFSLETSASTAYLQINNLKNEDTATYFCARTAVYWGQGTTVTVSS
VL: DIQMTQSPSSLSASLGERVSLTCRASQEISVSLSWLQQEPDGTIKRLIYATSTLDSGVPKRFSGSRSGSDYSLTISSLESEDFVDYYCLQYASYPWTFGGGTKLEIKRADAAPTVS
phosphorylation of HGFR, AKT, and ERK (HGFR signaling): inhibited phosphorylation of HGFR, AKT, and ERK
apoptosis (HCT116 cells): inducing apoptosis
apoptosis (HT29 cells): inducing apoptosis
levels of phosphorylated ADAM17 and presenilin 2 (ADAM17 and presenilin 2): decreased

B4: edrecolomab: other antibody targeting only the EGF I domain of EpCAM (antibody, chains of the INN, looked up, V domains shown)
VH: QVQLQQSGAELVRPGTSVKVSCKASGYAFTNYLIEWVKQRPGQGLEWIGVINPGSGGTNYNEKFKGKATLTADKSSSTAYMQLSSLTSDDSAVYFCARDGPWFAYWGQGTLVTVSA
VL: NIVMTQSPKSMSMSVGERVTLTCKASENVVTYVSWYQQKPEQSPKLLIYGASNRYTGVPDRFTGSGSATDFTLTISSVQAEDLADYHCGQGYSYPYTFGGGTKLEIK
inducing apoptosis of cancer cells (cancer cells): failing to
EpCAM domains bound (EpCAM): target only the well-described EGF I domain of EpCAM; also recorded: binding to domain I only

B6: EpEXΔEGFII-His (ligand)
chain: QEECVCENYKLAVNCFVNNNRQCQCTSVGAQNTVICSKLAAKSERVRTYWIIIELKHKAREKPYDSKSLRTALQKEITTRYQLDPKFITSILYENNVITIDLVQNSSQKTQNDVDIADVAYYFEKDVKGESLFHSKKMDLTVNGEQLDLDPGQTLIYYVDEKAPEFSMQGLK
notes: EpEX lacking aa 66-135; also called EGF like-domain deletion mutant EpEX-His; soluble EpEX mutant protein; not shown: His tag
binding result [2]: binds

More lines, now with the values ahead:

binding result [1]: binds
B1: EpCAMΔEGFII-V5 (other)
chain: QEECVCENYKLAVNCFVNNNRQCQCTSVGAQNTVICSKLAAKSERVRTYWIIIELKHKAREKPYDSKSLRTALQKEITTRYQLDPKFITSILYENNVITIDLVQNSSQKTQNDVDIADVAYYFEKDVKGESLFHSKKMDLTVNGEQLDLDPGQTLIYYVDEKAPEFSMQGLKAGVIAVIVVVVIAVVAGIVVLVISRKKRMAKYEKAEIKEMGEMHRELNA
notes: also called EGF like-domain deletion mutant EpCAM-V5; not shown: V5 tag

binding result [1]: binds
B5: EpCAMΔEGFI-V5 (other)
chain: QEESKLAAKCLVMKAEMNGSKLGRRAKPEGALQNNDGLYDPDCDESGLFKAKQCNGTSMCWCVNTAGVRRTDKDTEITCSERVRTYWIIIELKHKAREKPYDSKSLRTALQKEITTRYQLDPKFITSILYENNVITIDLVQNSSQKTQNDVDIADVAYYFEKDVKGESLFHSKKMDLTVNGEQLDLDPGQTLIYYVDEKAPEFSMQGLKAGVIAVIVVVVIAVVAGIVVLVISRKKRMAKYEKAEIKEMGEMHRELNA
notes: as for B1
